Molecular target: SHP2-C SH2
Experiment: SH2 binding enrichment of the phosphorylated peptide, bacterial display (enrichment ratio); higher = better substrate or ligand; peptides without Tyr show the background
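For SH2 binding enrichment of the phosphorylated peptide, bacterial display in this document: peptide library displayed on the E. coli surface as eCPX fusions, selected cells deep-sequenced, score is each peptide's frequency after selection divided by its frequency in the input.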
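For phosphorylation enrichment, bacterial display in this document: 11-residue human phosphosite peptides and single-mutation variants displayed on the E. coli surface, counted by deep sequencing, each peptide's frequency after selection divided by its frequency in the unselected input library; frequency after pTyr selection over input frequency; kinase dosed for 20-30% of maximal phosphorylation in three min.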

Sequence | SH2 binding enrichment
AGLVQYYMEHH [PTPN11_Y80_E76G] | 1.25
SGIFQYIIAKF [FOXL2_Y83_YF] | 1.27
AGVIIYTSRFQ [PFAS_Y538_A535V] | 0.794
ALLTKYSHSSM [DSCC1_Y374] | 0.488
GAAMLYYPSVS [GPR143_Y177] | 0.608
EVVGRYSVHYA [MLH1_Y183_N187Y] | 0.808
LHAAAYQNALA [UQCRC2_Y182_R183Q] | 0.611
LYSGDCYRIQG [DDR2_Y740_Y740C] | 0.701
GADAIYDHVNE [UQCR10_Y44_I47V] | 0.648
SLLKDYSPQLQ [OTC_Y345_T343K] | 0.604
MAYDRYVAICS [OR8D4_Y123_C120Y] | 0.713
RNIQQHNSFVS [PRKAR1A_Y373_Y373H] | 0.694
RSSGGYEPRGR [FUS_Y239] | 0.521
KFGTNYRVGSS [CPO_Y278_YF] | 0.914
VTHKEYFIFLE [CAMKV_Y95_R92H] | 1.98
QHVPDYRQNGF [PCDHGA1_Y890_V894G_YF] | 0.633
MASTSYDYCRV [BST2_Y6] | 0.671

Sequence | SH2 binding enrichment
SRDPFYEMLAA [CYTH1_Y382] | 0.748
EEQKKYFNATK [SCN5A_Y1494_M1498T_YF] | 0.516
ANVIHYFPTQA [SLC25A4_Y81_R80H] | 0.94
HLVLNYGVCVC [JAK2_Y613] | 0.795
DLDLTSIYPNI [PTEN_Y27_Y27S] | 0.614
GGDGSYVSVPS [TNNI3K_Y425] | 0.728
RGVVMYTSKDR [ZG16B_Y136_M133V] | 0.981
NKYTTYLPRLP [C9orf24_Y126] | 0.776
VKKNRYKDILP [PTPN12_Y64] | 0.704
GRTGHYLCNAC [GATA1_Y223_D218G] | 0.872
QELRRYLKSGI [MICA_Y194_V199I] | 0.525
IPQEEYTATGL | 0.79
GLAELYEFKKK [CKAP5_Y1854_YF] | 0.864
ITNLLYHLVGW [GBA_Y412_V414L] | 1.84
KHTLSFVDVGT [SDHA_Y629_Y629F] | 0.54
KGTAGYTTVAV [RET_Y752_R749T] | 2.15

Molecular target: Grb2 SH2 (UniProt P62993)
Experiment: as above

Sequence of Grb2 SH2 (P62993 whole entry, looked up): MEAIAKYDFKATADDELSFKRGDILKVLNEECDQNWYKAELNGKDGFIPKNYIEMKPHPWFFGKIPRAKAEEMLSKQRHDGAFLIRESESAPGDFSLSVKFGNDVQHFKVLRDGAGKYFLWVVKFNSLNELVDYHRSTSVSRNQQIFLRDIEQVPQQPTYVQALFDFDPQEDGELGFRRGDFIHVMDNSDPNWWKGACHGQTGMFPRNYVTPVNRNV

Sequence | SH2 binding enrichment
AGLVQYYMEHH [PTPN11_Y80_E76G] | 1.35
SGIFQYIIAKF [FOXL2_Y83_YF] | 1.35
AGVIIYTSRFQ [PFAS_Y538_A535V] | 0.791
ALLTKYSHSSM [DSCC1_Y374] | 0.76
GAAMLYYPSVS [GPR143_Y177] | 0.776
EVVGRYSVHYA [MLH1_Y183_N187Y] | 0.75
LHAAAYQNALA [UQCRC2_Y182_R183Q] | 8.54
LYSGDCYRIQG [DDR2_Y740_Y740C] | 0.828
GADAIYDHVNE [UQCR10_Y44_I47V] | 0.79
SLLKDYSPQLQ [OTC_Y345_T343K] | 0.884
MAYDRYVAICS [OR8D4_Y123_C120Y] | 0.766
RNIQQHNSFVS [PRKAR1A_Y373_Y373H] | 0.806
RSSGGYEPRGR [FUS_Y239] | 0.674
KFGTNYRVGSS [CPO_Y278_YF] | 1.23
VTHKEYFIFLE [CAMKV_Y95_R92H] | 1.78
QHVPDYRQNGF [PCDHGA1_Y890_V894G_YF] | 0.776
MASTSYDYCRV [BST2_Y6] | 0.904

Sequence | SH2 binding enrichment
SRDPFYEMLAA [CYTH1_Y382] | 0.957
EEQKKYFNATK [SCN5A_Y1494_M1498T_YF] | 0.766
ANVIHYFPTQA [SLC25A4_Y81_R80H] | 0.9
HLVLNYGVCVC [JAK2_Y613] | 0.796
DLDLTSIYPNI [PTEN_Y27_Y27S] | 0.808
GGDGSYVSVPS [TNNI3K_Y425] | 0.69
RGVVMYTSKDR [ZG16B_Y136_M133V] | 0.91
NKYTTYLPRLP [C9orf24_Y126] | 0.905
VKKNRYKDILP [PTPN12_Y64] | 0.753
GRTGHYLCNAC [GATA1_Y223_D218G] | 1.25
QELRRYLKSGI [MICA_Y194_V199I] | 0.747
IPQEEYTATGL | 0.799
GLAELYEFKKK [CKAP5_Y1854_YF] | 2.2
ITNLLYHLVGW [GBA_Y412_V414L] | 1.72
KHTLSFVDVGT [SDHA_Y629_Y629F] | 0.862
KGTAGYTTVAV [RET_Y752_R749T] | 0.757

Molecular target: c-Src SH2
Experiment: as above

Sequence | SH2 binding enrichment
AGLVQYYMEHH [PTPN11_Y80_E76G] | 1.14
SGIFQYIIAKF [FOXL2_Y83_YF] | 0.763
AGVIIYTSRFQ [PFAS_Y538_A535V] | 0.49
ALLTKYSHSSM [DSCC1_Y374] | 0.406
GAAMLYYPSVS [GPR143_Y177] | 0.765
EVVGRYSVHYA [MLH1_Y183_N187Y] | 0.544
LHAAAYQNALA [UQCRC2_Y182_R183Q] | 0.837
LYSGDCYRIQG [DDR2_Y740_Y740C] | 0.522
GADAIYDHVNE [UQCR10_Y44_I47V] | 0.523
SLLKDYSPQLQ [OTC_Y345_T343K] | 0.463
MAYDRYVAICS [OR8D4_Y123_C120Y] | 0.98
RNIQQHNSFVS [PRKAR1A_Y373_Y373H] | 0.557
RSSGGYEPRGR [FUS_Y239] | 0.488
KFGTNYRVGSS [CPO_Y278_YF] | 0.586
VTHKEYFIFLE [CAMKV_Y95_R92H] | 1.32
QHVPDYRQNGF [PCDHGA1_Y890_V894G_YF] | 0.494
MASTSYDYCRV [BST2_Y6] | 1.79

Sequence | SH2 binding enrichment
SRDPFYEMLAA [CYTH1_Y382] | 2.44
EEQKKYFNATK [SCN5A_Y1494_M1498T_YF] | 0.581
ANVIHYFPTQA [SLC25A4_Y81_R80H] | 0.435
HLVLNYGVCVC [JAK2_Y613] | 0.52
DLDLTSIYPNI [PTEN_Y27_Y27S] | 0.949
GGDGSYVSVPS [TNNI3K_Y425] | 1.83
RGVVMYTSKDR [ZG16B_Y136_M133V] | 0.596
NKYTTYLPRLP [C9orf24_Y126] | 0.991
VKKNRYKDILP [PTPN12_Y64] | 0.766
GRTGHYLCNAC [GATA1_Y223_D218G] | 0.917
QELRRYLKSGI [MICA_Y194_V199I] | 0.434
IPQEEYTATGL | 0.441
GLAELYEFKKK [CKAP5_Y1854_YF] | 0.533
ITNLLYHLVGW [GBA_Y412_V414L] | 1.49
KHTLSFVDVGT [SDHA_Y629_Y629F] | 0.562
KGTAGYTTVAV [RET_Y752_R749T] | 1.99

System: c-Src
Experiment: phosphorylation enrichment, bacterial display (enrichment ratio); higher = better substrate or ligand; peptides without Tyr show the background

Sequence | phosphorylation enrichment
AGLVQYYMEHH [PTPN11_Y80_E76G] | 0.468
SGIFQYIIAKF [FOXL2_Y83_YF] | 0.561
AGVIIYTSRFQ [PFAS_Y538_A535V] | 0.578
ALLTKYSHSSM [DSCC1_Y374] | 0.528
GAAMLYYPSVS [GPR143_Y177] | 1.11
EVVGRYSVHYA [MLH1_Y183_N187Y] | 0.404
LHAAAYQNALA [UQCRC2_Y182_R183Q] | 0.393
LYSGDCYRIQG [DDR2_Y740_Y740C] | 1.22
GADAIYDHVNE [UQCR10_Y44_I47V] | 3.77
SLLKDYSPQLQ [OTC_Y345_T343K] | 0.469
MAYDRYVAICS [OR8D4_Y123_C120Y] | 0.762
RNIQQHNSFVS [PRKAR1A_Y373_Y373H] | 0.367
RSSGGYEPRGR [FUS_Y239] | 0.358
KFGTNYRVGSS [CPO_Y278_YF] | 0.466
VTHKEYFIFLE [CAMKV_Y95_R92H] | 1.29
QHVPDYRQNGF [PCDHGA1_Y890_V894G_YF] | 0.543
MASTSYDYCRV [BST2_Y6] | 0.577

Sequence | phosphorylation enrichment
SRDPFYEMLAA [CYTH1_Y382] | 2.96
EEQKKYFNATK [SCN5A_Y1494_M1498T_YF] | 0.377
ANVIHYFPTQA [SLC25A4_Y81_R80H] | 0.515
HLVLNYGVCVC [JAK2_Y613] | 0.779
DLDLTSIYPNI [PTEN_Y27_Y27S] | 0.53
GGDGSYVSVPS [TNNI3K_Y425] | 0.347
RGVVMYTSKDR [ZG16B_Y136_M133V] | 0.622
NKYTTYLPRLP [C9orf24_Y126] | 0.616
VKKNRYKDILP [PTPN12_Y64] | 0.653
GRTGHYLCNAC [GATA1_Y223_D218G] | 0.296
QELRRYLKSGI [MICA_Y194_V199I] | 0.294
IPQEEYTATGL | 0.56
GLAELYEFKKK [CKAP5_Y1854_YF] | 0.665
ITNLLYHLVGW [GBA_Y412_V414L] | 2.99
KHTLSFVDVGT [SDHA_Y629_Y629F] | 0.292
KGTAGYTTVAV [RET_Y752_R749T] | 0.37

— the supplement of paper PMC10065799, “High-throughput profiling of sequence recognition by tyrosine kinases and SH2 domains using bacterial peptide display” (eLife, 2023)
